Molecular target: HLA-B*44:05 (Homo sapiens, UniProt P01889, A223V/A65T/A93T/A95T/D201E/D98Y/E176V/E187L/E204Q/E69K/G107R/H137Y/K202T/L105A/L119I/N104T/N87E/Q56L/Q94N/R106L/R155S/R180D/S101N/S121R/S35A/S48T/T118I/V36M/W191S/Y91S)
Assay: MHC binding assay (UV-ligand exchange, β2m ELISA, peptide exchange yield)
Details: binding to HLA-B*44:05
Method in brief: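 Peptide–HLA complexes formed by UV-ligand exchange of a UV-cleavable peptide for the test peptide. Exchange yield measured by β2m ELISA: complexes diluted 100-fold and captured on streptavidin, detected with HRP anti-β2m and TMB, read at 450 nm. Quantified against refolded HLA-A*02:01/MLA-001 monomer standards, 15-500 ng/ml.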

269 (SEDLAVHL; listed as Homo sapiens) [compound 269]
Peptide exchange (MHC class I binding score, peptide exchange yield): ++++ (>75% = ++++)

168 (EEGPSVPKIY; listed as Homo sapiens) [compound 168]
Peptide exchange (MHC class I binding score, peptide exchange yield): ++ (>20% = ++)

84 (AETSYVKVLEY; listed as Homo sapiens) [compound 84]
Peptide exchange (MHC class I binding score, peptide exchange yield): +++ (>50 = +++)

297 (DEYLIPQQGFF; listed as Homo sapiens) [compound 297]
Peptide exchange (MHC class I binding score, peptide exchange yield): ++ (>20% = ++)

152 (HENLIEDF; listed as Homo sapiens) [compound 152]
Peptide exchange (MHC class I binding score, peptide exchange yield): +++ (>50 = +++)

349 (LEWQHPSSW; listed as Homo sapiens) [compound 349]
Peptide exchange (MHC class I binding score, peptide exchange yield): ++++ (>75% = ++++)

173 (SEHSLEGQKF; listed as Homo sapiens) [compound 173]
Peptide exchange (MHC class I binding score, peptide exchange yield): +++ (>50 = +++)

401 (VENIFHNF; listed as Homo sapiens) [compound 401]
Peptide exchange (MHC class I binding score, peptide exchange yield): ++ (>20% = ++)

90 (EESLLSSW; listed as Homo sapiens) [compound 90]
Peptide exchange (MHC class I binding score, peptide exchange yield): +++ (>50 = +++)

76 (RLNEHPSNNW; listed as Homo sapiens) [compound 76]
Peptide exchange (MHC class I binding score, peptide exchange yield): ++ (>20% = ++)

95 (AAFEDAQGHIW; listed as Homo sapiens) [compound 95]
Peptide exchange (MHC class I binding score, peptide exchange yield): ++++ (>75% = ++++)

155 (TEDARHPESW; listed as Homo sapiens) [compound 155]
Peptide exchange (MHC class I binding score, peptide exchange yield): ++++ (>75% = ++++)

439 (VEVGDRTDW; listed as Homo sapiens) [compound 439]
Peptide exchange (MHC class I binding score, peptide exchange yield): +++ (>50 = +++)

318 (SESSSFLKV; listed as Homo sapiens) [compound 318]
Peptide exchange (MHC class I binding score, peptide exchange yield): +++ (>50 = +++)

21 (SEAKEIKSQL; listed as Homo sapiens) [compound 21]
Peptide exchange (MHC class I binding score, peptide exchange yield): +++ (>50 = +++)

394 (SEILRVTLY; listed as Homo sapiens) [compound 394]
Peptide exchange (MHC class I binding score, peptide exchange yield): +++ (>50 = +++)

366 (EECGKAFKKF; listed as Homo sapiens) [compound 366]
Peptide exchange (MHC class I binding score, peptide exchange yield): +++ (>50 = +++)

309 (SDDLRNVTW; listed as Homo sapiens) [compound 309]
Peptide exchange (MHC class I binding score, peptide exchange yield): ++++ (>75% = ++++)

372 (EEYKFPSLF; listed as Homo sapiens) [compound 372]
Peptide exchange (MHC class I binding score, peptide exchange yield): +++ (>50 = +++)

107 (YQENPRAAW; listed as Homo sapiens) [compound 107]
Peptide exchange (MHC class I binding score, peptide exchange yield): ++ (>20% = ++)

267 (VELEVPQL; listed as Homo sapiens) [compound 267]
Peptide exchange (MHC class I binding score, peptide exchange yield): ++ (>20% = ++)

142 (QELFLHPVL; listed as Homo sapiens) [compound 142]
Peptide exchange (MHC class I binding score, peptide exchange yield): ++++ (>75% = ++++)

216 (AGSPVMRKW; listed as Homo sapiens) [compound 216]
Peptide exchange (MHC class I binding score, peptide exchange yield): ++ (>20% = ++)

245 (MEFQGPMPAGM; listed as Homo sapiens) [compound 245]
Peptide exchange (MHC class I binding score, peptide exchange yield): +++ (>50 = +++)

186 (EEIFAHLGL; listed as Homo sapiens) [compound 186]
Peptide exchange (MHC class I binding score, peptide exchange yield): +++ (>50 = +++)

141 (SEKWFRMGF; listed as Homo sapiens) [compound 141]
Peptide exchange (MHC class I binding score, peptide exchange yield): +++ (>50 = +++)

92 (KEPSQSCIAQY; listed as Homo sapiens) [compound 92]
Peptide exchange (MHC class I binding score, peptide exchange yield): + (>10% = +)

206 (SEDPEKYYL; listed as Homo sapiens) [compound 206]
Peptide exchange (MHC class I binding score, peptide exchange yield): +++ (>50 = +++)

343 (SEFDLEQVW; listed as Homo sapiens) [compound 343]
Peptide exchange (MHC class I binding score, peptide exchange yield): ++++ (>75% = ++++)

55 (TEFHMQFSY; listed as Homo sapiens) [compound 55]
Peptide exchange (MHC class I binding score, peptide exchange yield): ++++ (>75% = ++++)

402 (IETSSEYFNF; listed as Homo sapiens) [compound 402]
Peptide exchange (MHC class I binding score, peptide exchange yield): +++ (>50 = +++)

427 (AEMLGSVVGNW; listed as Homo sapiens) [compound 427]
Peptide exchange (MHC class I binding score, peptide exchange yield): +++ (>50 = +++)

450 (REIENGNSF; listed as Homo sapiens) [compound 450]
Peptide exchange (MHC class I binding score, peptide exchange yield): +++ (>50 = +++)

315 (MEQQSQEY; listed as Homo sapiens) [compound 315]
Peptide exchange (MHC class I binding score, peptide exchange yield): +++ (>50 = +++)

135 (QEIDRGQYI; listed as Homo sapiens) [compound 135]
Peptide exchange (MHC class I binding score, peptide exchange yield): ++++ (>75% = ++++)

440 (QEVAQVASA; listed as Homo sapiens) [compound 440]
Peptide exchange (MHC class I binding score, peptide exchange yield): ++ (>20% = ++)

137 (EKGLISAF; listed as Homo sapiens) [compound 137]
Peptide exchange (MHC class I binding score, peptide exchange yield): ++ (>20% = ++)

190 (NEAGEVSKHF; listed as Homo sapiens) [compound 190]
Peptide exchange (MHC class I binding score, peptide exchange yield): +++ (>50 = +++)

393 (SETILAVGL; listed as Homo sapiens) [compound 393]
Peptide exchange (MHC class I binding score, peptide exchange yield): +++ (>50 = +++)

230 (AEALVDGKW; listed as Homo sapiens) [compound 230]
Peptide exchange (MHC class I binding score, peptide exchange yield): +++ (>50 = +++)

448 (ALSPVPSHW; listed as Homo sapiens) [compound 448]
Peptide exchange (MHC class I binding score, peptide exchange yield): +++ (>50 = +++)

251 (DESADSEPHKY; listed as Homo sapiens) [compound 251]
Peptide exchange (MHC class I binding score, peptide exchange yield): + (>10% = +)

185 (TEANVQALF; listed as Homo sapiens) [compound 185]
Peptide exchange (MHC class I binding score, peptide exchange yield): ++++ (>75% = ++++)

123 (DEINHQSL; listed as Homo sapiens) [compound 123]
Peptide exchange (MHC class I binding score, peptide exchange yield): ++ (>20% = ++)

316 (RLWPEPENW; listed as Homo sapiens) [compound 316]
Peptide exchange (MHC class I binding score, peptide exchange yield): ++ (>20% = ++)

449 (RENDFEPKF; listed as Homo sapiens) [compound 449]
Peptide exchange (MHC class I binding score, peptide exchange yield): +++ (>50 = +++)

399 (IEQADWPEI; listed as Homo sapiens) [compound 399]
Peptide exchange (MHC class I binding score, peptide exchange yield): ++ (>20% = ++)

359 (NEFRRKLTF; listed as Homo sapiens) [compound 359]
Peptide exchange (MHC class I binding score, peptide exchange yield): +++ (>50 = +++)

253 (QEILHGAVRF; listed as Homo sapiens) [compound 253]
Peptide exchange (MHC class I binding score, peptide exchange yield): +++ (>50 = +++)

181 (HEVAQDDHL; listed as Homo sapiens) [compound 181]
Peptide exchange (MHC class I binding score, peptide exchange yield): ++ (>20% = ++)

103 (AELFLTKSF; listed as Homo sapiens) [compound 103]
Peptide exchange (MHC class I binding score, peptide exchange yield): ++++ (>75% = ++++)

346 (EEIENLQAQF; listed as Homo sapiens) [compound 346]
Peptide exchange (MHC class I binding score, peptide exchange yield): ++ (>20% = ++)

277 (VEFPATRSL; listed as Homo sapiens) [compound 277]
Peptide exchange (MHC class I binding score, peptide exchange yield): +++ (>50 = +++)

455 (QESVHVASYYW; listed as Homo sapiens) [compound 455]
Peptide exchange (MHC class I binding score, peptide exchange yield): ++++ (>75% = ++++)

Reference: patent US12065471B2, “B*44 restricted peptides for use in immunotherapy against cancers and related methods” (Immatics Biotechnologies GmbH, priority 2018, dated 2024)
